For test [1], the target named is Sigma mSPE-7 IgE (commercial mouse monoclonal anti-dinitrophenyl IgE, SPE-7, from Sigma) (mouse). The conditions noted are these: scale: % of the activity of the unpurified Sigma SPE-7 IgE.
For test [2], the target named is mSPE-7 IgE from the NS1 hybridoma (mouse anti-dinitrophenyl IgE) (mouse). Kind of test: SEC-MALLS; peak B of the Superdex 200 Increase fractionation of NS1 mSPE-7 IgE, run again on Superdex 200 Increase with inline light scattering and refractometer.
Test [3] shares this target. The conditions noted are these: scale: % of the unpurified Sigma SPE-7 IgE's activity.

In test [1], “Sigma mSPE-7 IgE (commercial mouse monoclonal anti-dinitrophenyl IgE, SPE-7, from Sigma) (antibody)” showed a degranulation of RBL-SX38 cells (β-hexosaminidase release) without antigen by component B of Sigma SPE-7 IgE, against unpurified Sigma SPE-7 IgE of 65. In test [2], “mSPE-7 IgE from the NS1 hybridoma (mouse anti-dinitrophenyl IgE) (antibody)” registered a stoichiometry N of 3. The substance also had a degranulation of RBL-SX38 cells (β-hexosaminidase release) without antigen by peak B (IgE trimer) of NS1 mSPE-7 IgE, against unpurified Sigma SPE-7 IgE in test [3] of 55.

Source of the values: publication PMC5557881.
